Assay: soluble on expression in E. coli; label from the status in PepcDB or PDB records

Sequence	soluble on expression in E. coli
MTKIFIRDDNGGTEMSQDPFQEREAEKYANPIPSREFILEHLTKREKPASRDELAVELHIEGEEQLEGLRRRLRAMERDGQLVFTRRQCYALPERLDLVKGTVIGHRDGYGFLRVEGRKDDLYLSSEQMKTCIHGDQVLAQPLGADRKGRREARIVRVLVPKTSQIVGRYFTEAGVGFVVPDDSRLSFDILIPPDQIMGARMGFVVVVELTQRPTRRTKAVGKIVEVLGDNMGTGMAVDIALRTHEIPYIWPQAVEQQVAGLKEEVPEEAKAGRVDLRDLPLVTIDGEDARDFDDAVYCEKKRGGGWRLWVAIADVSYYVRPSTPLDREARNRGTSVYFPSQVIPMLPEVLSNGLCSLNPQVDRLCMVCEMTVSSKGRLTGYKFYEAVMSSHARLTYTKVWHILQGDQDLREQYAPLVKHLEELHNLYKVLDKAREERGGISFESEEAKFIFNAERRIERIEQTQRNDAHKLIEECMILANISAARFVEKAKEPALFRIHDKPSTEAITSFRSVLAELGLELPGGNKPEPRDYAELLESVADRPDAEMLQTMLLRSMKQAIYDPENRGHFGLALQSYAHFTSPIRRYPDLTLHRAIKYLLAKEQGHQGNTTETGGYHYSMEEMLQLGQHCSMAERRADEATRDVADWLKCDFMLDQVGNVFKGVISSVTGFGFFVRLDDLFIDGLVHVSSLDNDYYRFDQVGQRLMGESSGQTYRLGDRVEVRVEAVNMDERKIDFSLISSERAPRNVGKTAREKAKKGDAGKKGGKRRQVGKKVNFEPDSAFRGEKKTKPKAAKKDARKAKKPSAKTQKIAAATKAKRAAKKKVAELEHHHHHH	soluble
MRLKLTHINHISHKIANDFIHSKLLELKAPRELLCELIEGILEKSVKKENAIDEQARELLEENTDEIEFMRMDERQLFWMIKRQIAQKEGFHLFWEERCNDLSHQILNKILDEDLIMFSVSENLIRNLIYKSIDTYSKAYESIENEVHEKIKHYKRKLPVGSDEYELVFERLYEEELRRKGFL	not soluble
MSLSSHKPTVVLADSNDDFRSYLTSCLTEEFTIKSFRDGIEAMAYIKNEYPDLVICDTELQNMDGVELSSRLKTSCETSIIPIILYSSHIDINQHNRRKTSLADTFLQQPFSVTDLKLEMSILIKNTRFLRKSFLQRLFGEEFLETKASEILQDGKHPLISKVTKIILENLNNEKLTIDSIAKELGISRTSLYNKWTQLTGEALNKFILKIRMEKAHEMLKSGKYRVNEVPEKIGMKDMDNFREKYKKYFGKTPVDTIKNEGHHHHHH	soluble
MGSDKIHHHHHHMFPLVTITGEPFERGQQYGAATAALIRHSIASYARLFAYRRGMDWEAVQQAALAYEPLLHDVAPDLLTEMRGIAVGASRTLAEIIALNVRTELLAGVGVGFHHPEAAAALARNRAAGVPQHQEQLPATPATGSDDGECTTAAASPPATANGRVWLAQTWDWQGDQRAACVLLRVSGPDTPTLLTLTEAGMVAKIGLNEAGIAVGLNLLRSRADGQQQGMPVHVLLRQMLQSTDTVTARRLVSQIPAAGSSCITLAGADGELVALELTPTGIAEIPAQEGLLAHANHCLDGGTAAGECPLEPTSTTRERYGRAWELLHAAAGQIDLDVLQVILRDHDGAPRCICRHPDPRVAAVDRNESVCGVIIDLRGRTMHVAANIPCQAPFVPFML	not soluble
MGSDKIHHHHHHDDHQGIIPLPPVENAFQEKYPDAKNPVFEIEGNYYVVDFNNGGSETTAWFTDQGIWMMEKIDISFAQLPAAVSTAFKQSFYSNWTVDDTYAINRLNMGIVYKIEAEQSNSEVDLYYSQYGNLIKAVDDEINNDAPIVIPKEVSNLMEITFANAELLDIQQNSLGYELDMIDNQIYKVAQLNKDYRWQSTTWAMSEQEVPQIVMQGFESSAYASDKVQSIYTLLNANGTFYLFKVSHNGQDKTITFDVFGNIV	not soluble
MWKIMRSWKCGGMRWAHRQRPSHELLSQLSFDQHYKIRSNIELLIQDYASKPIAPLNYEYFLQYRPPLTKKEEYMLTIKTINLLLSLTCKRLNAIQRLPYNAVINPHIERTNSLYLKSLQTLLSIAYPYELHNPPKIQAKFTELLDDHEDAIVVLAKGLQEIQSCYPKFQISQFLNFHLKERITMKLLVTHYLSLMAQNKGDTNKRMIGILHRDLPIAQLIKHVSDYVNDICFVKFNTQRTPVLIHPPSQDITFTCIPPILEYIMTEVFKNAFEAQIALGKEHMPIEINLLKPDDDELYLRIRDHGGGITPEVEALMFNYSYSTHTQQSADSESTDLPGEQINNVSGMGFGLPMCKTYLELFGGKIDVQSLLGWGTDVYIKLKGPSKTALLSKK	soluble
MGHHHHHHSHMGTNDEDELSLGLPTELKRKKEQLDGGHRPSKETQSAAGLTLPLNSDQTFHLMSNLAGDVITAAVTAAIKDQLEGVQQALSQAAPIPEEDTDTEEGDDFELLDQSELDQIESELGLTQDQEAEAQQNKKSSGFLSNLLGGH	soluble
MGSDKIHHHHHHMKNNETKVPTSRLSRLSKMGGLASRLAGNVLLEGAKQLSQGKSPSMQQLMMTPKNIGHVADKLSQLRGAAMKVGQMLSMDAGDLVPPELAEILAKLRSDAKAMPHKQLTQLLVQHWGHDWLAPFAQFELRPFAAASIGQVHLAYLDTGEKLAIKIQYPGIRDSIDSDIDNVASLLKVSRLIPANVKLDTLLAEAKAQLHNEADYHFEAQQIALYQQQLGDSPHFIVPKVYPKLSNNSILCMQFVEGVAIESVEHSPQDVRDKVASALMELCFKELFCFQLVQSDPNFANFQYQADSQKIVLLDFGATRTISDTLSQGYMQLMQGAIADDKQQMIQAAQQIGFFQDAIDPQQKQLIIDIFYQACEPLRTQGTYDFGASNLAKRITQAGKAMSTQQNEWHTPPTDAIFIHRKLAGMYLLAAKLNANINVHALFNQVVNSKNE	not soluble
MSTMKDEIEKVPASQYKGQDFQPLAEKSAIAHAKKYREEYEKLGEQFFKDNFSLNVKATNVVGSGDGAEVYVHCDDHDIVFNASIPFDMESIHEEGSMRSNDNGDTMSMMVGTVLSGFEYRANKEKMDNLEKYLKDKEDKYHYTGFTDEAITKTQNIGYQNNYFYITTSSTKLRDYRKHFEPLIKESDDDFKKHMKQLKSKKDTYINTEITTTLFSTLDEYDEKIIRKNTLSMAKEMRKEPSIPHNFTFHLLFSNNKLKINDPNISNNQINEYRVFDHDGFKNLEHHHHHH	soluble
AHHHHHHGSILEKAREILEEHQLCNHCLGRLFGKLGKGTNEERGRAIRLLLSMETGKEYKEPEKCELCGGVFNNLDKFAELCIKAAEGIEFETFWVGSRFPEEIEKKEEEIWRKFRVVSGEKITKEFNRELGKVIAVRYGKTPVKERPDVVFIVEPFSEKVELQVNPIYVAGRYRKLIRGIPQTPAPGFKESIATIICRAFKKHFHGKCIFKGAGREDVDVRMLGNGRPFVVEIKRPRKRKVNLKDIEEEINQSGKVEVLNLRFITPEEAERILTTRHRKVYEAIVYVKDGITKEEVEKVVKSLKNAEIKQRTPRRVLNSRADLVRVRKVYDVKGELIDDKHFKLRLVTDGGLYIKELISGDRGRTTPSVSEILGKEAWCEILDVLEVLDDVEGDN	soluble
TVSRENRAEDSRVAAKGVAFGGGETVRIAAEPSVWSNADAVFLDPFFTSANLYDTLSADEGRGRCRRLAEQAASAHGAGKPVLVRVRNVRHVEAALNAGADILYLGGGLMSDLAVLNEAGSLNIPLVLCKDKHHSAEDWLNAAEYVVSRGNRHLILGESGVLGHTKGHPYRLDVESIVKVRQISHLPVIANITGLWSRDMPQEILYGLAKAAGACGIV	not soluble
MGSDKIHHHHHHMARRYVVVGGGPAGVVCAETLRRQDAEGSITLVCAEPGPPYSRMAIPYAMSGKIDESGTWLRKDWGHYEALGIALLHDRVTGVDSGARQVRLESGAPLSYDALLIATGSSPARPRVPGLDLPGVHSCWTLEDLRRIDPLLKPGRRVLLLGAGFVSCIILQSLVQRGAKVTVSCGSSGRMVRSMMDETAGGMIMRWCRAKGVEVLTAGRPTAIEQRDSGLLVTLDSGKSAEADLVIVGTGVKTNTAFLEGSGIAIEDGIIVDQYLGTNVPGIWAAGDVAQGFNCCTGLTEVHAIQPTAVEHGRVAAMNMSGHPTPFGGSLSMNTLETLGLISCSFGQWMGAEGGKQVRMVDEEHFRYLRLEFQGDRLVGANTVGMTNEIGIIRGLIQTKLRLGEWLERLTQDPSRLAEAYVACAQGV	not soluble

Source: the DeepSol protein solubility set
